Experimental data reported in patent US20170015742A1 (published 2017).

Key:
[1] = target: T1, recombinant human PDGF-BB (human, UniProt P01127 82-190, biotin-labelled in the binding and competition ELISAs (sites not given)); assay: cell-based or functional assay
recombinant rat PDGF-BB = recombinant rat PDGF-BB (rat, UniProt Q05028 74-182); assay: cell-based or functional assay
[2] = target: T1, recombinant human PDGF-BB; assay: receptor competition ELISA: antibody pre-incubated with biotin-hPDGF-BB, binding to coated hPDGF-Rβ-Fc
Experimental: (§1) Plates were then washed four times with wash buffer (TBS, 0.05% Tween-20) and blocked with Superblock blocking buffer (Thermo Scientific, cat#37535). During the blocking step, supernatants, antibodies, benchmark compounds or DVD-Ig were diluted in assay diluent (10% Superblock containing 0.05% surfactamps) and an eight point titration of each sample molecule was performed. […] Following incubation, plates were washed four times with wash buffer. Detection reagent Streptavidin-polyHRP-40 (Fitzgerald, cat#65r-s104phrp) was diluted in assay diluent and added to plates (50 μL) for 45 minutes at 25° C. with shaking. Plates were washed four times with wash buffer and developed with the addition of Enhanced K-blue TMB substrate (Neogen, cat#308177). The reaction was stopped with 2N sulfuric acid (VWR, cat# BDH3500-1) and the absorbance was read at 450 nm-570 nm. […] Data was analyzed using Softmax Pro 4.8 software and IC₅₀ values calculated using a sigmoidal dose response (variable slope) fit in GraphPad Prism 5.

[3] = target: T2, recombinant human VEGF165 (human, UniProt P15692 207-395); assay: cell-based or functional assay
[4] = target: T3, recombinant human PDGF-BB (human, UniProt P01127 82-190); assay: cell-based or functional assay
[5] = target: T3, recombinant human PDGF-BB; assay: competition ELISA: blocks hPDGF-BB-biotin binding to coated hPDGF-Rβ-Fc
Experimental: as §1

[6] = target: T2, recombinant human VEGF165; assay: competition ELISA: blocks biotinylated hVEGF165 binding to coated hVEGF-R2-Fc
Experimental: To identify molecules that could block the binding of hVEGF₁₆₅ to the hVEGF-R2 (KDR/Flk-1) receptor, a competition ELISA was performed. […] Plates were then washed four times with wash buffer (TBS, 0.05% Tween-20) and blocked with Superblock blocking buffer (Thermo Scientific, cat#37535). […] The pre-incubated sample/hVEGF₁₆₅ complex was added to the coated plate at 50 μL in duplicate and incubated for 30 minutes at 25° C. with shaking. Following incubation, plates were washed four times with wash buffer. Streptavidin-polyHRP-40 (Fitzgerald cal#65r-s104phrp) was diluted in assay diluent (10% Superblock containing 0.05% surfactamps) and added to plates (50 μL) for 45 minutes at 25° C. with shaking. Plates were washed four times with wash buffer and developed with the addition of Enhanced K-blue TMB substrate (Neogen cat#308177). The reaction was stopped with 2N sulfuric acid (VWR, cat# BDH3500-1) and the absorbance was read at 450 nm-570 nm. A decrease in observed optical density indicates the test molecule is blocking the hVEGF₁₆₅ binding to the hVEGF-R2-Fc. Data was analyzed using Softmax Pro 4.8 software and IC₅₀ values calculated using a sigmoidal dose response (variable slope) fit in GraphPad Prism 5.

[7] = target: T4, recombinant human VEGF-R2-Fc (human, UniProt P35968 20-764); assay: competition ELISA: antibody added to coated hVEGF-R2-Fc, then biotinylated hVEGF165 (competitor)
T4 construct: Bought Fc fusion (R&D Systems cat#357-KD); also called hVEGFR2-Fc; VEGF-R2 (KDR/Flk-1); not shown: Fc part of the bought fusion protein
Experimental: To identify molecules which could block the binding of VEGF-R2 (KDR/Flk-1) to hVEGF₁₆₅, a competition ELISA was performed. […] Plates were then washed four times with wash buffer (TBS, 0.05% Tween-20) and blocked with Superblock blocking buffer (Thermo Scientific, cat#37535). […] The samples were added to wells and incubated for 30 minutes at 25° C. with shaking. […] Following incubation, plates were washed four times with wash buffer. Streptavidin-polyHRP-40 (Fitzgerald cat#65r-s104phrp) was diluted in assay diluent (10% Superblock containing 0.05% surfactamps) and added to plates (50 μL) for 45 minutes at 25° C. with shaking. Plates were washed four times with wash buffer and developed with the addition of Enhanced K-blue TMB substrate (Neogen cat#308177). The reaction was stopped with 2N sulfuric acid (VWR, cat# BDH3500-1) and the absorbance was read at 450 nm-570 nm. A decrease in observed optical density indicates the test molecule is blocking the human VEGF-R2-Fc binding to hVEGF₁₆₅. Data was analyzed using Softmax Pro 4.8 software and IC₅₀ values calculated using a sigmoidal dose response (variable slope) fit in GraphPad Prism 5.
Humanized anti-VEGFR2 antibodies were tested for potency against hVEGFR2 in functional assay formats. The antibodies were characterized for the ability to block VEGFR2 binding to hVEGF₁₆₅ in a competition ELISA format (Example 1.22).

T1 sequence (P01127 82-190 limits assumed): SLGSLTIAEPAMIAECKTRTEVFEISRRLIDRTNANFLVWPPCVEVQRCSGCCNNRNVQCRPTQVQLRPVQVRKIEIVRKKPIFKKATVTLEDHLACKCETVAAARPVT
T3 sequence (P01127 82-190 limits assumed): as above
T2 sequence (P15692 other isoform, or with tags, fused parts or gaps limits assumed): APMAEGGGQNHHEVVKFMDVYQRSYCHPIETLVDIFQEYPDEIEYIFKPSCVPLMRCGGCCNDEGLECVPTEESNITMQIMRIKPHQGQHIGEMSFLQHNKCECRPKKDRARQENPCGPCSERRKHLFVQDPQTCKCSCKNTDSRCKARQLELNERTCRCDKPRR
T4 sequence (P35968 20-764 limits assumed): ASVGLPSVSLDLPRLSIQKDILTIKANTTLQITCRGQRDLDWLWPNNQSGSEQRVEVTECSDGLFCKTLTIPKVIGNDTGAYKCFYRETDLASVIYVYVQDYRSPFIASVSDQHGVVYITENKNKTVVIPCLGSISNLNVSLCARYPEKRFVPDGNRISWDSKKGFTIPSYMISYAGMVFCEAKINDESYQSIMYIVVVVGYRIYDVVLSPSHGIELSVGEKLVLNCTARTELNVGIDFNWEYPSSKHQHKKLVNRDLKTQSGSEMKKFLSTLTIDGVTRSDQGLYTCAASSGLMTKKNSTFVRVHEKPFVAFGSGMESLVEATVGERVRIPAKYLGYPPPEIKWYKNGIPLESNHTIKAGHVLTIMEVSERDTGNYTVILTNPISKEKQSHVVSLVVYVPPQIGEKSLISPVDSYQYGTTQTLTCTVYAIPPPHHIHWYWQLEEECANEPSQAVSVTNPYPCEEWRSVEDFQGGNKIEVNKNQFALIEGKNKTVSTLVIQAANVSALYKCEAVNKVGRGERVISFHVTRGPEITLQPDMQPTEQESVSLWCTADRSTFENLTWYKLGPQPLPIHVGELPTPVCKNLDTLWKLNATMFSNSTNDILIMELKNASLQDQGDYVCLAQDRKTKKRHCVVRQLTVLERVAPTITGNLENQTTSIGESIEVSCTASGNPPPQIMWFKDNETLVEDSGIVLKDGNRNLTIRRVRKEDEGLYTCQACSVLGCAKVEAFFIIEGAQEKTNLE
recombinant rat PDGF-BB, sequence (Q05028 74-182 limits assumed): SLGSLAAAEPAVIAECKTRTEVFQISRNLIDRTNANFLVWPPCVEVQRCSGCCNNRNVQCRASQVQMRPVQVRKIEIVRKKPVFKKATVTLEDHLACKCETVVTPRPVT

B1: chBDI-5G2 (antibody, human IgG1, V domains shown)
VH: QVTLKESGPGILQPSQTLSLTCTFSGFSLSTFGMGVGWIRQPSGKGLEWLANIWWDDDKYYNPSLKNRLTISKDTSNSQAFLEITNVDTADTATYYCARISTGISSYYVMDAWGQGASVTVSS
VL: QFTLTQPKSVSGSLRSTITIPCERSSGDIGDTYVSWYQQHLGRPPINVIYGNDQRPSEVSDRFSGSIDSSSNSASLTITNLQMDDEADYFCQSYDSDIDIVFGGGTKLTVL
notes: also called chimeric BDI-5G2-F9
[1]
  huPDGF-BB Neutralization Potency (nM) in NIH-3T3 Cells: 0.181 nM
Recombinant rat PDGF-BB
  ratPDGF-BB Neutralization Potency (nM) in NIH-3T3 Cells: 0.118 nM
[2]
  IC50: 1080 pM

B2: chBDI-1E1 (antibody, human IgG1, V domains shown)
VH: EVKLQQSGDELVRPGASVKMSCKASGYTFTDYVMHWVKQSPGQGLEWIGTIIPLIDTTSYNQKFKGKATLTADKSSNTAYMELSRLTSEDSAVYYCARTSPYYYSSYDVMDAWGQGASVTVSS
VL: NIQLTQSPSLLSASVGDRVTLSCKGSQNINNYLAWYQQKLGEAPKLLIYKTNNLQTGIPSRFSGCGSGTDYTLTISSLHSEDLATYYCYQYDNGYTFGAGTKLELK
notes: also called chimeric BDI-1E1-D5
[1]
  huPDGF-BB Neutralization Potency (nM) in NIH-3T3 Cells: > 5 nM
[2]
  IC50: 417 pM

B3: hVEGF 4G8.3-SL-hPDGF 9E8.4 [hu IgG1/k] mut(234, 235) H435A (bispecific antibody)
heavy: EVQLVQSGSELKKPGASVKVSCKASGYTFTNYGMYWVRQAPGQGLEWMGWINTETGKPTYADDFKGRFVFSLDTSVSTAYLQISSLKAEDTAVYYCARTNYYYRSYIFYFDYWGQGTMVTVSSASTKGPEVTLRESGPALVKPTQTLTLTCTFSGFSLSTYGMGVGWIRQPPGKALEWLANIWWDDDKYYNPSLKNRLTISKDTSKNQVVLTMTNMDPVDTATYYCARIESIGTTYSFDYWGQGTMVTVSSASTKGPSVFPLAPSSKSTSGGTAALGCLVKDYFPEPVTVSWNSGALTSGVHTFPAVLQSSGLYSLSSVVTVPSSSLGTQTYICNVNHKPSNTKVDKKVEPKSCDKTHTCPPCPAPEAAGGPSVFLFPPKPKDTLMISRTPEVTCVVVDVSHEDPEVKFNWYVDGVEVHNAKTKPREEQYNSTYRVVSVLTVLHQDWLNGKEYKCKVSNKALPAPIEKTISKAKGQPREPQVYTLPPSREEMTKNQVSLTCLVKGFYPSDIAVEWESNGQPENNYKTTPPVLDSDGSFFLYSKLTVDKSRWQQGNVFSCSVMHEALHNAYTQKSLSLSPGK
light: DTVLTQSPATLSLSPGERATLSCRASESVSTHMHWYQQKPGQAPRLLIYGASNLESGVPARFSGSGSGTDFTLTISSLEPEDFAVYFCQQSWNDPFTFGQGTKLEIKRTVAAPSVFIFPPEFVLTQSPGTLSLSPGERATLSCERSSGDIGDSYVSWYQQKPGQAPRLVIYADDQRPSGIPDRFSGSGSGTDFTLTISRLEPEDFAVYYCQSYDINIDIVFGGGTKVEIKGTVAAPSVFIFPPSDEQLKSGTASVVCLLNNFYPREAKVQWKVDNALQSGNSQESVTEQDSKDSTYSLSSTLTLSKADYEKHKVYACEVTHQGLSSPVTKSFNRGEC
notes: DVD-Ig, outer hBDB-4G8.3, inner hBDI-9E8.4, HG-short/LK-long; also called 4G8.3-SL-9E8.4
[3]
  Potency IC50 (nM) HMVEC-d hVEGF165: 0.36 nM
[4]
  Potency IC50 (nM) NIH-3T3 hPDGF-BB: 0.427 nM
[5]
  IC50: > 5000 pM
[6]
  IC50: 133 pM

B4: 9E10.1_GS_CL-33675 (bispecific antibody, human IgG1, kappa, L234A L235A)
heavy: EIQLVQSGSELKKPGASVKVSCKASGYTFTNYGMYWVKQAPGQGLEYMGWIDTETGRPTYADDFKGRFVFSLDTSVSTAYLQISSLKAEDTAVYFCARWSGDTTGIRGPWFAYWGQGTLVTVSSGGGGSGGGGSEVTLRESGPALVKPTQTLTLTCTFSGFSLSTYGMGVGWIRQPPGKALEWLANIWWDDDKYYNPSLKNRLTISKDTSKNQVVLTMTNMDPVDTATYYCARIESSGPKYSFDYWGQGTMVTVSSASTKGPSVFPLAPSSKSTSGGTAALGCLVKDYFPEPVTVSWNSGALTSGVHTFPAVLQSSGLYSLSSVVTVPSSSLGTQTYICNVNHKPSNTKVDKKVEPKSCDKTHTCPPCPAPEAAGGPSVFLFPPKPKDTLMISRTPEVTCVVVDVSHEDPEVKFNWYVDGVEVHNAKTKPREEQYNSTYRVVSVLTVLHQDWLNGKEYKCKVSNKALPAPIEKTISKAKGQPREPQVYTLPPSREEMTKNQVSLTCLVKGFYPSDIAVEWESNGQPENNYKTTPPVLDSDGSFFLYSKLTVDKSRWQQGNVFSCSVMHEALHNAYTQKSLSLSPGK
light: DIRMTQSPSSLSASVGDRVTIECLASEDIYSDLAWYQQKPGKSPKLLIYNANGLQNGVPSRFSGSGSGTDYSLTISSLQPEDVATYFCQQYNYFPGTFGQGTKLEIKGGSGGGGSGGEIVLTQSPGTLSLSPGERATLSCRASSGSIWYSFVSWYQQKPGQAPRLLIYADDQRASGIPDRFSGSGSGTDFTLTISRLEPEDFAVYYCQSYGINIDVVFGGGTKVEIKRTVAAPSVFIFPPSDEQLKSGTASVVCLLNNFYPREAKVQWKVDNALQSGNSQESVTEQDSKDSTYSLSSTLTLSKADYEKHKVYACEVTHQGLSSPVTKSFNRGEC
notes: DVD-Ig, outer hBEW-9E10.1, inner CL-33675, GS-H10/GS-L10(dR), hu IgG1/k LALA H435A; also called PR-1610561; 9E10.1-GS-33675
[3]
  Potency IC50 (nM) HMVEC-d hVEGF165: 0.145 nM
[4]
  Potency IC50 (nM) NIH-3T3 hPDGF-BB: 0.034 nM
[5]
  IC50: 90 pM
[6]
  IC50: 45 pM

B5: hBCU-6B1.2 (antibody, V domains shown)
VH: EVQLVQSGAEVKKPGASVKVSCKASGYTFTNYGMYWVKQAPGQGLEFMGWINTETGQPTYADDFKGRFTFTLDTSTSTAYMELRSLRSDDTAVYFCARLGNNYGIWFAYWGQGTLVTVSS
VL: DIQMTQSPSSLSASVGDRVTIECRASDDLYSTLAWYQQKPGKSPKLLIFDANRLAAGVPSRFSGSGSGTDYSLTISSLQPEDVATYFCQQYNKFPWTFGGGTKVEIK
notes: Humanized anti-human VEGFR II IgG from pHybE expression vectors
[7]
  IC50: 340 pM

B6: hBCU-6B1.1 (antibody, V domains shown)
VH: EVQLVQSGSELKKPGASVKVSCKASGYTFTNYGMYWVKQAPGQGLEFMGWINTETGQPTYADDFKGRFVFSLDTSVSTAYLQISSLKAEDTAVYFCARLGNNYGIWFAYWGQGTLVTVSS
VL: DIQMTQSPSSLSASVGDRVTIECRASDDLYSTLAWYQQKPGKSPKLLIFDANRLAAGVPSRFSGSGSGTDYSLTISSLQPEDVATYFCQQYNKFPWTFGGGTKVEIK
notes: as for B5
[7]
  IC50: 474 pM

B7: hBCU-6B1.3 (antibody, V domains shown)
VH: EVQLVQSGAEVKKPGASVKVSCKASGYTFTNYGMYWVRQAPGQGLEFMGWINTETGQPTYADDFKGRFTFTLDTSTSTAYMELRSLRSDDTAVYYCARLGNNYGIWFAYWGQGTLVTVSS
VL: DIQMTQSPSSLSASVGDRVTIECRASDDLYSTLAWYQQKPGKSPKLLIFDANRLAAGVPSRFSGSGSGTDYSLTISSLQPEDVATYFCQQYNKFPWTFGGGTKVEIK
notes: as for B5
[7]
  IC50: 319 pM

B8: hBCU-6B1.4 (antibody, V domains shown)
VH: EVQLVQSGAEVKKPGASVKVSCKASGYTFTNYGMYWVRQAPGQGLEFMGWINTETGQPTYADDFKGRFTFTLDTSTSTAYMELRSLRSDDTAVYYCARLGNNYGIWFAYWGQGTLVTVSS
VL: DIQMTQSPSSLSASVGDRVTITCRASDDLYSTLAWYQQKPGKSPKLLIFDANRLAAGVPSRFSGSGSGTDYTLTISSLQPEDVATYFCQQYNKFPWTFGGGTKVEIK
notes: as for B5
[7]
  IC50: 335 pM
